Results reported in US9993536B2, “Peptides and combination of peptides and scaffolds for use in immunotherapy against renal cell carcinoma (RCC) and other cancers” (immatics biotechnologies GmbH, priority 2015, dated 2018).

molecular target: HLA-A*02:01 (Homo sapiens, UniProt P04439, D140Y/D185E/D98H/E176V/E277Q/G131W/G231S/I119V/I121R/I166T/I218V/L300P/L318F/N151K/N90K/P208A/P217A/Q86G/Q94H/R138H/R169H/T345S); assay: MHC binding assay (UV-ligand exchange, beta2m ELISA); conditions: peptide exchange yield, HLA-A*02:01, UV-ligand exchange
From the text: Candidate peptides for T cell based therapies according to the present invention were further tested for their MHC binding capacity (affinity). The individual peptide-MHC complexes were produced by UV-ligand exchange, where a UV-sensitive peptide is cleaved upon UV-irradiation, and exchanged with the peptide of interest as analyzed. Only peptide candidates that can effectively bind and stabilize the peptide-receptive MHC molecules prevent dissociation of the MHC complexes. To determine the yield of the exchange reaction, an ELISA was performed based on the detection of the light chain (β2m) of stabilized MHC complexes. The assay was performed as generally described in Rodenko et al. (Rodenko et al., 2006).
96 well MAXISorp plates (NUNC) were coated over night with 2 ug/ml streptavidin in PBS at room temperature, washed 4× and blocked for 1 h at 37° C. in 2% BSA containing blocking buffer. Refolded HLA-A*02:01/MLA-001 monomers served as standards, covering the range of 15-500 ng/ml. Peptide-MHC monomers of the UV-exchange reaction were diluted 100 fold in blocking buffer. Samples were incubated for 1 h at 37° C., washed four times, incubated with 2 ug/ml HRP conjugated anti-β2m for 1 h at 37° C., washed again and detected with TMB solution that is stopped with […]. Absorption was measured at 450 nm. Candidate peptides that show a high exchange yield (preferably higher than 50%, most preferred higher than 75%) are generally preferred for a generation and production of antibodies or fragments thereof, and/or T cell receptors or fragments thereof, as they show sufficient avidity to the MHC molecules and prevent dissociation of the MHC complexes.

Substance	Peptide exchange (MHC class I binding score)
4 (FLSQDIITV; listed as Homo sapiens) [compound 4]	+++ (≥50 = +++)
5 (YLYPNLTRL; listed as Homo sapiens) [compound 5]	++ (≥20% = ++)
8 (GLASFKSFL; listed as Homo sapiens) [compound 8]	++ (≥20% = ++)
10 (KLLQNNYGL; listed as Homo sapiens) [compound 10]	++ (≥20% = ++)
11 (FIQTEAPKEV; listed as Homo sapiens) [compound 11]	++ (≥20% = ++)
12 (ALDPSGNQLI; listed as Homo sapiens) [compound 12]	++ (≥20% = ++)
13 (KIMAQILTV; listed as Homo sapiens) [compound 13]	+++ (≥50 = +++)
14 (ALLTETIFL; listed as Homo sapiens) [compound 14]	++ (≥20% = ++)
17 (ILAQQVHAL; listed as Homo sapiens) [compound 17]	+++ (≥50 = +++)
18 (YVLDLAAKV; listed as Homo sapiens) [compound 18]	+++ (≥50 = +++)
19 (LLDPGSLQL; listed as Homo sapiens) [compound 19]	++ (≥20% = ++)
21 (RLIQGDQILSV; listed as Homo sapiens) [compound 21]	++ (≥20% = ++)
22 (FLSPPLPSV; listed as Homo sapiens) [compound 22]	+++ (≥50 = +++)
23 (YIQEVVQYI; listed as Homo sapiens) [compound 23]	+++ (≥50 = +++)
24 (FTLGTTVFL; listed as Homo sapiens) [compound 24]	+++ (≥50 = +++)
25 (LLVPAHLVAA; listed as Homo sapiens) [compound 25]	++ (≥20% = ++)
27 (SLSDLLVSL; listed as Homo sapiens) [compound 27]	+++ (≥50 = +++)
28 (FIADLVVGL; listed as Homo sapiens) [compound 28]	++ (≥20% = ++)
30 (QLFYTKIFL; listed as Homo sapiens) [compound 30]	++ (≥20% = ++)

Substance	Peptide exchange (MHC class I binding score)
31 (VLFGLDPAVIKV; listed as Homo sapiens) [compound 31]	+++ (≥50 = +++)
33 (FIADVVEKI; listed as Homo sapiens) [compound 33]	++ (≥20% = ++)
34 (ELNNQNFYL; listed as Homo sapiens) [compound 34]	+++ (≥50 = +++)
35 (VLHSLQTQL; listed as Homo sapiens) [compound 35]	++ (≥20% = ++)
36 (SLFGKKYIL; listed as Homo sapiens) [compound 36]	++ (≥20% = ++)
37 (VLAPVILML; listed as Homo sapiens) [compound 37]	++ (≥20% = ++)
38 (VLLDTILQL; listed as Homo sapiens) [compound 38]	+++ (≥50 = +++)
39 (YLLNLNHLGL; listed as Homo sapiens) [compound 39]	+++ (≥50 = +++)
40 (YIQEHLLQI; listed as Homo sapiens) [compound 40]	+++ (≥50 = +++)
41 (GLLKTLQKL; listed as Homo sapiens) [compound 41]	++ (≥20% = ++)
42 (VILDTGTIQL; listed as Homo sapiens) [compound 42]	++ (≥20% = ++)
43 (YLKDELDEL; listed as Homo sapiens) [compound 43]	+++ (≥50 = +++)
44 (ALFSFVTAL; listed as Homo sapiens) [compound 44]	+++ (≥50 = +++)
45 (ALLGIPLTL; listed as Homo sapiens) [compound 45]	+++ (≥50 = +++)
46 (GLSEVLVQI; listed as Homo sapiens) [compound 46]	+++ (≥50 = +++)
47 (TLAEVRAVQEI; listed as Homo sapiens) [compound 47]	+++ (≥50 = +++)
48 (VVASNIMEV; listed as Homo sapiens) [compound 48]	++ (≥20% = ++)
49 (VLIVEVPGV; listed as Homo sapiens) [compound 49]	+++ (≥50 = +++)
50 (SLSDHIVLL; listed as Homo sapiens) [compound 50]	++ (≥20% = ++)

Substance	Peptide exchange (MHC class I binding score)
51 (NLWPMILTL; listed as Homo sapiens) [compound 51]	+++ (≥50 = +++)
52 (SILDAVQRV; listed as Homo sapiens) [compound 52]	++ (≥20% = ++)
53 (FLLEIRQTL; listed as Homo sapiens) [compound 53]	++ (≥20% = ++)
54 (ALVAKGLVQA; listed as Homo sapiens) [compound 54]	++ (≥20% = ++)
55 (YLALILPVL; listed as Homo sapiens) [compound 55]	++ (≥20% = ++)
56 (ILMDFSNSM; listed as Homo sapiens) [compound 56]	+++ (≥50 = +++)
57 (SLQKEILYL; listed as Homo sapiens) [compound 57]	++ (≥20% = ++)
58 (FLVDFEQSHL; listed as Homo sapiens) [compound 58]	++++ (≥75% = ++++)
59 (SLKNNVVSV; listed as Homo sapiens) [compound 59]	+++ (≥50 = +++)
60 (ILWKDIEYV; listed as Homo sapiens) [compound 60]	+++ (≥50 = +++)
61 (SLMGILLRI; listed as Homo sapiens) [compound 61]	++ (≥20% = ++)
62 (VLAGPAFLVQL; listed as Homo sapiens) [compound 62]	+++ (≥50 = +++)
63 (GLIEDHFDVTV; listed as Homo sapiens) [compound 63]	++ (≥20% = ++)
64 (LLAASVALA; listed as Homo sapiens) [compound 64]	++ (≥20% = ++)
65 (IIYGGSVTGA; listed as Homo sapiens) [compound 65]	++ (≥20% = ++)
66 (TLLKTIIKV; listed as Homo sapiens) [compound 66]	++ (≥20% = ++)
67 (LLDVLAPLV; listed as Homo sapiens) [compound 67]	++ (≥20% = ++)
68 (YVLTQPPSV; listed as Homo sapiens) [compound 68]	++ (≥20% = ++)
